Experimental data reported in paper PMC7188823, “The BRCA2-MEILB2-BRME1 complex governs meiotic recombination and impairs the mitotic BRCA2-RAD51 function in cancer cells” (Nature Communications, 2020).
Blank lines part the entries; values can stand above or below the molecule they belong to.

B1: MEILB2 C-terminus (a.a. 87–338) (domain or fragment, mouse, UniProt Q9D4G2 87-338, looked up)
chain: ARLETAQADSGREKKEKLALRQQLNEAKQQLLQQAEYCTQMGAVTCTLLWGVSSSEEVVKTILGGDKALKFFNITGQTMESFVKSLDGDVKEVDSDENQFVFALAGIVTNVAAIACGREFLVNSSRVLLDTMLQLLGDLKPGQCTKLKVLMLMSLYNVSINSKGLKYITESPGFIPLLWWLLSDPDAEVCLHTLRLIQSVVLEPDVFSKVASELQSSLPLQRILAMSKSRNSHLQSAAQELLEDLRALDCNV
notes: MEILB2/HSF2BP, mouse, a.a; 87-338 (27.9 kDa in theory); pET-Duet for the co-expression, pSmt3 for the protein alone; also called mMEILB2 a.a; 87–338; source: E. coli BL21(DE3), purified (Ni-NTA, Ulp1 cleavage, cation exchange, size-exclusion chromatography); expressed alone or co-expressed with BRCA2 (a.a. 2219–2285); not shown: 10x His-Smt3, N-terminal, cleaved

Experiments:
[1] = target: MEILB2 α1 (a.a. 18–55; tag removed) (mouse) (UniProt Q9D4G2); experiment: SEC-MALS; Superdex 200 Increase 10/300 GL; 20 mM Tris (pH 8.0), 150 mM KCl, 2 mM DTT; samples at >1 mg/ml; MEILB2 fragments alone or as purified complexes with BRME1-MBD
[2] = target: MEILB2 α1+2 (tag removed) (mouse); experiment: as above
[3] = target: the molecule itself; experiment: SEC-MALS; individual proteins; 500 µg on Superdex 200 10/300 at 0.5 ml/min
[4] = target: the molecule itself; experiment: SEC-MALS; purified MEILB2 (a.a. 87–338)-BRCA2 (a.a. 2219–2285) heterocomplex; 500 µg on Superdex 200 10/300 at 0.5 ml/min
[5] = target: T1, MEILB2 C-terminus (a.a. 87–338) (Mus musculus (Mouse), UniProt Q9D4G2); experiment: co-expression co-purification, SEC and SEC-MALS
T1 chain: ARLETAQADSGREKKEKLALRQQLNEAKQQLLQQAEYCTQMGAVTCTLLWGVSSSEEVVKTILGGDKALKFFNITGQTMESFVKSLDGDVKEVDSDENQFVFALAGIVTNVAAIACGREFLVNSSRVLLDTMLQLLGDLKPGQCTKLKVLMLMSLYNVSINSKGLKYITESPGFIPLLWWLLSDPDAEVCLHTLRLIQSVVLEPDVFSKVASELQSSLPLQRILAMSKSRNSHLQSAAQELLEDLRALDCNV

[6] = target: B1; experiment: SEC-MALS; purified MEILB2 (a.a. 87–338)-BRCA2 (a.a. 2219–2285) heterocomplex; 500 µg on Superdex 200 10/300 at 0.5 ml/min; conditions: both partners purified
[7] = target: the molecule itself; experiment: SEC-MALS; Superdex 200 Increase 10/300 GL; 20 mM Tris (pH 8.0), 150 mM KCl, 2 mM DTT; samples at >1 mg/ml; MEILB2 fragments alone or as purified complexes with BRME1-MBD

Molecule: B1
stoichiometry N [3]: 2 chains in the oligomer
stoichiometry N [4]: 4 chains in the oligomer

B3: MEILB2 α1 (a.a. 18–55; tag removed) (domain or fragment, mouse, UniProt Q9D4G2 18-55, looked up)
chain: MESKEEFVKVRKKDLERLTTEVMQIRDFLPRILNGELL
notes: MEILB2/HSF2BP, mouse, α1, a.a; 18-55; source: E. coli BL21 (DE3), purified (Ni-NTA, amylose, ion exchange, TEV cleavage, size-exclusion chromatography); not shown: MBP, N-terminal, cleaved
stoichiometry N [7]: 4 chains in the oligomer

The next lines start with the values.

stoichiometry N (BRME1-MBD per MEILB2 chain (2:2)) [1]: 1
stoichiometry N (BRME1-MBD per MEILB2 chain (2:2)) [2]: 1
Molecule: BRME1-MBD (a.a. 519–600), recombinant, His-tagged (from UniProt Q6DIA7 519-600) (domain or fragment)

binding result [5]: binds
stoichiometry N [6]: ~0.5 BRCA2 per MEILB2 chain (4:2 MEILB2:BRCA2)
B2: BRCA2-MBD fragment (a.a. 2219–2285) (domain or fragment, mouse, UniProt P97929 2219-2285, looked up)
chain: KRGGVTVDAVGQPPIKRSLLNEFDRIIESKGKSLTPSKSTPDGTVKDRSLFTHHMSLEPVTCGPFCS
notes: BRCA2, mouse, a.a; 2219-2285 (7.4 kDa in theory by the text); the His-Smt3 tag holds for the protein expressed alone (pSmt3); in the co-expression (pET-Duet) BRCA2 was untagged; also called mBRCA2 a.a; 2219–2285; source: E. coli BL21(DE3), purified (Ni-NTA, Ulp1 cleavage, size-exclusion chromatography, cation exchange); expressed alone or co-expressed untagged with His-Smt3-MEILB2 (a.a. 87–338)
